Results as given in patent publication US20210196823A1, “Methods of Treating Metabolic Disease” (Pfizer Inc., priority 2018, published 2021).

Columns and labels:
[1] = system: biotinylated monoFC-muErfe; test: FRET assay: BMPs disrupting binding of cryptate-labelled anti-ERFE antibody 15.1 to biotinylated monoFC-muErfe; design: species or system murine; settings: competing antigen 250 nM to 0.39 nM, Ab 15.1 15 nM, 3 hours room temperature
Protocol: (a) Investigation of the ability of BMPs to disrupt binding of cryptate-labelled anti-ERFE antibody to biotinylated murine ERFE: FRET assay was used to determine the ability of BMPs to disrupt binding between ERFE and a neutralising anti-ERFE antibody (Ab 15.1). The assay setup comprised streptavidin XL665 (cisbio assays) at a constant concentration of 1:1000 to be 50 ng per well, biotinylated monoFC-muErfe (9 μM) i.e. a monomeric FC murine ERFE fusion, cryptate labelled anti-ERFE antibody (Ab 15.1) at 15 nM. Each reaction well contained a total volume of 20 μl comprising: 5 μl streptavidin XL665, 5 μl Biotinylated monoFC-muErfe, 5 μl cryptate labelled anti-ERFE antibody 15.1, 5 μl competing antigen as a titration from 250 nM to 0.39 nM, all antigens at each concentration were assayed in duplicate. Reactions were left for 3 hours at room temperature and then […] at 665 nm and […] was read on the Envision. […] The assay was also conducted using a non-neutralising anti-ERFE antibody as a control.

[2] = system: HAMP-nanoluciferase fusion in HepG2 hepatoma cells; test: hepcidin transcriptional fusion reporter assay (nano-luc / nano-luciferase assay); type: cell-based; settings: for hepcidin expression (hepcidin-nanoluciferase fusion expression): NanoLuc cells, serially diluted BMP, 24 h
Protocol: The was measured in-vitro using as follows: A hepcidin transcriptional fusion reporter assay (nano-luc or nano-luciferase assay) was developed to assess the effect of BMPs on hepcidin production in-vitro. A nanoluciferase reporter was inserted at the end of the coding sequence of the endogenous HAMP gene, in HepG2 hepatoma cells, creating a HAMP-nanoluciferase fusion. CRISPR-Cas9 was used to edit the cells with this knock-in reporter construct. A bovine Growth Hormone poly A was included after the nanoLuc to ensure proper mRNA processing. A Puromycin-TK expression cassette was also included 3′ of the nanoluc reporter to enrich for properly targeted clones. […] Approximately 20,000 cells (cells split with trypsin/EDTA) were suspended in 200 uL of complete media (DMEM+10% serum+Na pyruvate) and were distributed into each well of 96-well plates and incubated for 24 hours at 37 C. Media was then aspirated and the cells treated in 100 uL complete media for 24 h at 37 C in the presence of the selected BMP which was serial diluted (in duplicates), controls of fresh media alone were used for a baseline signal (in duplicate). Following the incubation 90 uL of supernatant was transferred to a white wall 96 well plate and equilibrated at RT, 90 uL of RT NanoLuc reagent was added/well (for 1 plate, 10 mL diluting reagent+200 uL NanoLuc substrate—from Nano-Glo Luciferase Assay System, Promega, ref cat #N1150) and mixed 2-3 min at room temperature. Plates were read on Envision with Lum700 program following the manufacturer's instructions.

[3] = system: SMAD1/5/8 phosphorylation in Huh7 cells; test: Western blot of SMAD1/5/8 phosphorylation in Huh7 cells; type: cell-based; settings: Huh7, BMP6 stimulation, 30 min
Protocol: (d) ERFE effects on BMP/SMAD signalling measured by SMAD 1/5/8 phosphorylation: To confirm the suppression of BMP/SMAD signalling, we analysed phosphorylation of SMAD1/5/8, required to transduce the signal leading to HAMP upregulation. Analysis was carried out by Western blot according to the following methodology: Cells were lysed at 4° C. using RIPA buffer (Thermo Scientific) containing protease/phosphatase inhibitor (Cell Signalling). Lysates were denatured at 95° C. and separated on a 10% SDS polyacrylamide gel (Bio-Rad), following the manufacturer's instruction. Protein sizes were estimated by using the Novex Sharp Pre-Stained Protein Ladder (life technologies). Protein was transferred to a nitrocellulose membrane, then blocked with milk/TBS for 1 h. Antibodies used were anti-P-SMAD 1/5 (S463s/465)/9(S465/467) (Cell signalling 13820S 1:500), anti-Smad1 (Cell Signalling 6944S 1:500), anti-β-actin-peroxidase (Sigma A3854 1:10 000), and Anti-rabbit IgG HRP conjugated (RnD systems HAP008 1:5000). […] In this case Huh7 cells were treated with mouse ERFE (10 μg/ml) or BMP6 and LDN, a small molecule inhibitor of BMPs, (100 nM), alone or in combination, for 30 min and pSMAD/SMAD ratios values were calculated by densitometry. Erythroferrone caused a decrease in SMAD phosphorylation relative to non-treated cells (FIG. 3D).

Huh7 cells = test: Gene expression microarray of Huh7 cells treated with ERFE; type: cell-based; settings: Huh7, ERFE 10 μg/ml, 24 h
Protocol: (b) Gene expression microarray: Microarray analysis of Huh7 cells treated with mouse or human erythroferrone was carried out to test the activity of erythroferrone on the BMP/SMAD signalling pathway. Generally cell treatments were carried out according to the following protocol: Huh7 and HepG2 were cultured in Dulbecco's Modified Eagle's Medium—High Glucose (Sigma), supplemented with 10% Fetal Bovine Serum (Sigma), 1% Penicillin-Streptomycin (Sigma) and 1% L-Glutamine (Sigma), unless otherwise indicated. Cells were plated 24 h before treatments in 24-well (gene expression analysis) or 12-well (protein analysis) cell culture plates. At the time of treatment, cells were washed with PBS and fresh media was added.
For the purposes of gene expression microarray analysis RNA was isolated from the Huh7 cells using RNeasy Plus kit (Qiagen), this was followed by RNA quantification and quality assessment using a 2100 Bioanalyzer (Agilent). RNA was converted into biotin labelled cRNA for hybridization and gene expression analysed using the Human HT12v4.0 Expression Beadchip (Illumina) and the Illuminas's iScan Scanner. Raw data was normalised using the lumi package (Bioconductor) and compared using LIMMA (Bioconductor). Statistical significance was set at p<0.05.

BMP6 = biological target: T1, BMP6 (UniProt P22004 382-513); test: SPR (Biacore)
T1 chain: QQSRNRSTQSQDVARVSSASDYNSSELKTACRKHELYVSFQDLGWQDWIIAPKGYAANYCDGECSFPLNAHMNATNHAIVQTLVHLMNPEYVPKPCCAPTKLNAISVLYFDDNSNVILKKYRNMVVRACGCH

BMP2 = biological target: T2, BMP2 (UniProt P12643 283-396); test: SPR (Biacore)
T2 chain: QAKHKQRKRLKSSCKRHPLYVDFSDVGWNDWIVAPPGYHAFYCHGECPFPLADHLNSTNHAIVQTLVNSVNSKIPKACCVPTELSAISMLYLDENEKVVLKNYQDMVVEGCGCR

BMP4 = biological target: T3, BMP4 (UniProt P12644 293-408); test: SPR (Biacore)
T3 chain: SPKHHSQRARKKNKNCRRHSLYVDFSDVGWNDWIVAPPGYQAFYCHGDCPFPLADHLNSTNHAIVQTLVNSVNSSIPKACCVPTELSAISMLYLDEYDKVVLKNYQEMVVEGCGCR

Chain of biotinylated monoFC-muErfe (Q6PGN1 25-340): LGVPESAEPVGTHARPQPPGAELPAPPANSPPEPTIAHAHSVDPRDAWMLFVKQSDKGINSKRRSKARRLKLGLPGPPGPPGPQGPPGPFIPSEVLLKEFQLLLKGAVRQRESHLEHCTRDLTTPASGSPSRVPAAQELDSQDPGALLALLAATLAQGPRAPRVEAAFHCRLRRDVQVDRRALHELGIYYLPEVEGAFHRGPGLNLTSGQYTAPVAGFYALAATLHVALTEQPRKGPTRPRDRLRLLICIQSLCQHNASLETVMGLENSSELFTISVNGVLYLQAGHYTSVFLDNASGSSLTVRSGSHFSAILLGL

Question: Which “competition with cryptate labelled anti-ERFE antibody for binding to biotinylated monoFC-muErfe” value (“competition” for short) [1] does the source give for “BMP4: bone morphogenetic protein 4 (R&D systems)” here?
Answer: Its value is “did not compete effectively”.

B1: BMP6: bone morphogenetic protein 6 (R&D systems) (protein)
chain: QQSRNRSTQSQDVARVSSASDYNSSELKTACRKHELYVSFQDLGWQDWIIAPKGYAANYCDGECSFPLNAHMNATNHAIVQTLVHLMNPEYVPKPCCAPTKLNAISVLYFDDNSNVILKKYRNMVVRACGCH
Question: For B1, which “hepcidin expression (hepcidin-nanoluciferase fusion expression)” value [2] is on record?
Answer: The value was “dose-dependent increase”.

Question: What about the “competition” value [1] of the same molecule?
Answer: The value was “measurable competition”.

Question: What about the SMAD phosphorylation [3] of the same molecule?
Answer: Its SMAD phosphorylation is “increase”.

B2: BMP5: bone morphogenetic protein 5 (R&D systems) (protein)
chain: AANKRKNQNRNKSSSHQDSSRMSSVGDYNTSEQKQACKKHELYVSFRDLGWQDWIIAPEGYAAFYCDGECSFPLNAHMNATNHAIVQTLVHLMFPDHVPKPCCAPTKLNAISVLYFDDSSNVILKKYRNMVVRSCGCH
Question: B2 was tested. Which “competition” value [1] did it give?
Answer: Its value is “measurable competition”.

B3: BMP7: bone morphogenetic protein 7 (R&D systems) (protein)
chain: STGSKQRSQNRSKTPKNQEALRMANVAENSSSDQRQACKKHELYVSFRDLGWQDWIIAPEGYAAYYCEGECAFPLNSYMNATNHAIVQTLVHFINPETVPKPCCAPTQLNAISVLYFDDSSNVILKKYRNMVVRACGCH
Question: Which “competition” value [1] does the source give for B3 here?
Answer: Its value is “measurable competition”.

B4: BMP9: bone morphogenetic protein 9 (R&D systems) (protein)
chain: SAGAGSHCQKTSLRVNFEDIGWDSWIIAPKEYEAYECKGGCFFPLADDVTPTKHAIVQTLVHLKFPTKVGKACCVPTKLSPISVLYKDDMGVPTLKYHYEGMSVAECGCR
Question: How did the “hepcidin expression (hepcidin-nanoluciferase fusion expression)” value [2] turn out when B4 was run?
Answer: The value was “dose-dependent increase”.

B5: human ERFE: recombinant human erythroferrone, SEQ ID NO: 1 (protein, listed as Homo sapiens)
chain: MAPARRPAGARLLLVYAGLLAAAAAGLGSPEPGAPSRSRARREPPPGNELPRGPGESRAGPAARPPEPTAERAHSVDPRDAWMLFVRQSDKGVNGKKRSRGKAKKLKFGLPGPPGPPGPQGPPGPIIPPEALLKEFQLLLKGAVRQRERAEPEPCTCGPAGPVAASLAPVSATAGEDDDDVVGDVLALLAAPLAPGPRAPRVEAAFLCRLRRDALVERRALHELGVYYLPDAEGAFRRGPGLNLTSGQYRAPVAGFYALAATLHVALGEPPRRGPPRPRDHLRLLICIQSRCQRNASLEAIMGLESSSELFTISVNGVLYLQMGQWTSVFLDNASGCSLTVRSGSHFSAVLLGV
Question: Which “target genes of the JAK/STAT3 pathway” value (Huh7 cells) does the source give for B5 here?
Answer: Its value is “No changes”.

Question: What about the “number of suppressed genes” value (Huh7 cells; 5 are BMP/SMAD targets ID1, ID2, ID3, SMAD6, HAMP) of the same molecule?
Answer: Its value is 12.

B6: ERFE A4-biotin (ligand)
chain: AAGLGSPEPGAPSRSAAAAEPPPGNELPRGPGESRAGPAARPPEPTAERAHSVDPRDAWMLFVRQSDKGVNGKKRSRGKAKKLKFGLPGPPGPPGPQGPPGPIIPPEALLKEFQLLLKGAVRQRERAEPEPCTCGPAGPVAASLAPVSATAGEDDDDVVGDVLALLAAPLAPGPRAPRVEAAFLCRLRRDALVERRALHELGVYYLPDAEGAFRRGPGLNLTSGQYRAPVAGFYALAATLHVALGEPPRRGPPRPRDHLRLLICIQSRCQRNASLEAIMGLESSSELFTISVNGVLYLQMGQWTSVFLDNASGCSLTVRSGSHFSAVLLGV
modifications: biotin (site not stated)
Question: For B6, which Kd (BMP6) is on record?
Answer: Its Kd is 1.17 nM.

Question: What about the Kd (BMP2) of the same molecule?
Answer: The Kd was 16.1 nM.

Question: And the Kd (BMP4)?
Answer: Its Kd is 41.1 nM.

B7: monoFC-huErfe: monomeric Fc fusion of human ERFE; FIG. 3L legend names the A4 mutant (protein)
chain: AAGLGSPEPGAPSRSRARREPPPGNELPRGPGESRAGPAARPPEPTAERAHSVDPRDAWMLFVRQSDKGVNGKKRSRGKAKKLKFGLPGPPGPPGPQGPPGPIIPPEALLKEFQLLLKGAVRQRERAEPEPCTCGPAGPVAASLAPVSATAGEDDDDVVGDVLALLAAPLAPGPRAPRVEAAFLCRLRRDALVERRALHELGVYYLPDAEGAFRRGPGLNLTSGQYRAPVAGFYALAATLHVALGEPPRRGPPRPRDHLRLLICIQSRCQRNASLEAIMGLESSSELFTISVNGVLYLQMGQWTSVFLDNASGCSLTVRSGSHFSAVLLGV
modifications: left off: a dimerising Fc or GST
Question: How did the “suppression of hepcidin production (NanoLuc)” value ([2]; two fold dilutions from 600 nM, 24 hours) turn out when B7 was run?
Answer: The value was “dose dependent”.
